# Experimental data as given in US20190000971A1 (RESEARCH INSTITUTE AT NATIONWIDE CHILDREN S HOSPITAL, published 2019).
# T1: Haemophilus influenzae IhfA, A5 fragment (Haemophilus influenzae)
# T1 construct: Synthetic 20-mer peptide; also called IhfA frag; A5
# T1 peptide: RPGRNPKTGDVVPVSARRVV
# T2: Haemophilus influenzae IhfB, modified B4 (mB4) fragment (Haemophilus influenzae)
# T2 construct: Synthetic 20-mer peptide; also called IhfB frag. mB4
# T2 peptide: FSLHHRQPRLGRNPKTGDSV
# B1: monoclonal antibody IhfA5 NTHI (hybridoma IhfA5 NTHI 14G8.F5.G6, ATCC PTA-122334) (antibody, V domains shown)
# VH: EVQLQESGPGLVTPSQSLSMTCTVSGFSLTSYSVHWVRQPPGKSLEWLGVIWAGGSTNYNSALMSRLSISKDNSKSQVFLKMDSLQTDDTAIYYCAREDSWGQGTSVTVSS
# VL: DIVMTQSQKFMSTSVGDRVSVTCKASQNVGTNVAWYQQKPGQSPKALIYSASYRYSGVPDRFTGSGSGTDFTLTISNVQSEDLAEYFCQQYNSYPTFGGGTKLEIK
# notes: 13; also called mAb IhfA5NTHI
# B2: monoclonal antibody mIhfB4 NTHI (hybridoma mIhfB4 NTHI 12E6.F8.D12.D5, ATCC PTA-122335) (antibody, V domains shown)
# VH: EVQLQESGAELVRSGASVKLSCTASGFNIKDYYMHWVKQRPEQGLEWIGWIDPENDDTEYVPKFQGKASMTADTSSNTAYLQLSSLTSEDTAVYYCTELGAYWGQGTLV
# VL: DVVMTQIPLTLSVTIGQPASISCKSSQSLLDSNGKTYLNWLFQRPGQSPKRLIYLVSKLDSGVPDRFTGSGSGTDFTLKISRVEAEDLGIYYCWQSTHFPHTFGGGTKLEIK
# notes: 17; also called Ihf mB4; mB4
# Tests used:
# [1] = target: T1, Haemophilus influenzae IhfA, A5 fragment; assay: ELISA, peptide-coated plate (FIG. 2B/2C)
# [2] = target: T2, Haemophilus influenzae IhfB, modified …; assay: ELISA (FIG. 2B)
Binder,binding result [1],binding result [2]
B1,binds,
B2,,binds
